Source: patent US20090318349

B1: Met-mTGase from S. mobaraensis (protein)
chain: MDSDDRVTPPAEPLDRMPDPYRPSYGRAETVVNNYIRKWQQVYSHRDGRKQQMTEEQREWLSYGCVGVTWVNSGQYPTNRLAFASFDEDRFKNELKNGRPRSGETRAEFEGRVAKESFDEEKGFQRAREVASVMNRALENAHDESAYLDNLKKELANGNDALRNEDARSPFYSALRNTPSFKERNGGNHDPSRMKAVIYSKHFWSGQDRSSSADKRKYGDPDAFRPAPGTGLVDMSRDRNIPRSPTSPGEGFVNFDYGWFGAQTEADADKTVWTHGNHYHAPNGSLGAMHVYESKFRNWSEGYSDFDRGAYVITFIPKSWNTAPDKVKQGWP
B2: mature mTGase from Streptoverticillium ladakanum (protein)
chain: DSDERVTPPAEPLDRMPDPYRPSYGRAETIVNNYIRKWQQVYSHRDGRKQQMTEEQREWLSYGCVGVTWVNSGQYPTNRLAFAFFDEDKYKNELKNGRPRSGETRAEFEGRVAKDSFDEAKGFQRARDVASVMNKALENAHDEGAYLDNLKKELANGNDALRNEDARSPFYSALRNTPSFKDRNGGNHDPSKMKAVIYSKHFWSGQDRSGSSDKRKYGDPEAFRPDRGTGLVDMSRDRNIPRSPTSPGESFVNFDYGWFGAQTEADADKTVWTHGNHYHAPNGSLGAMHVYESKFRNWSDGYSDFDRGAYVVTFVPKSWNTAPDKVKQGWP
B3: Met-mTGase from S. ladakanum (protein)
chain: MDSDERVTPPAEPLDRMPDPYRPSYGRAETIVNNYIRKWQQVYSHRDGRKQQMTEEQREWLSYGCVGVTWVNSGQYPTNRLAFAFFDEDKYKNELKNGRPRSGETRAEFEGRVAKDSFDEAKGFQRARDVASVMNKALENAHDEGAYLDNLKKELANGNDALRNEDARSPFYSALRNTPSFKDRNGGNHDPSKMKAVIYSKHFWSGQDRSGSSDKRKYGDPEAFRPDRGTGLVDMSRDRNIPRSPTSPGESFVNFDYGWFGAQTEADADKTVWTHGNHYHAPNGSLGAMHVYESKFRNWSDGYSDFDRGAYVVTFVPKSWNTAPDKVKQGWP
B4: mTGase from Streptomyces mobaraensis (protein)
chain: DSDDRVTPPAEPLDRMPDPYRPSYGRAETVVNNYIRKWQQVYSHRDGRKQQMTEEQREWLSYGCVGVTWVNSGQYPTNRLAFASFDEDRFKNELKNGRPRSGETRAEFEGRVAKESFDEEKGFQRAREVASVMNRALENAHDESAYLDNLKKELANGNDALRNEDARSPFYSALRNTPSFKERNGGNHDPSRMKAVIYSKHFWSGQDRSSSADKRKYGDPDAFRPAPGTGLVDMSRDRNIPRSPTSPGEGFVNFDYGWFGAQTEADADKTVWTHGNHYHAPNGSLGAMHVYESKFRNWSEGYSDFDRGAYVITFIPKSWNTAPDKVKQGWP
B5: AlaPro-mTGase from S. ladakanum (protein)
chain: APDSDERVTPPAEPLDRMPDPYRPSYGRAETIVNNYIRKWQQVYSHRDGRKQQMTEEQREWLSYGCVGVTWVNSGQYPTNRLAFAFFDEDKYKNELKNGRPRSGETRAEFEGRVAKDSFDEAKGFQRARDVASVMNKALENAHDEGAYLDNLKKELANGNDALRNEDARSPFYSALRNTPSFKDRNGGNHDPSKMKAVIYSKHFWSGQDRSGSSDKRKYGDPEAFRPDRGTGLVDMSRDRNIPRSPTSPGESFVNFDYGWFGAQTEADADKTVWTHGNHYHAPNGSLGAMHVYESKFRNWSDGYSDFDRGAYVVTFVPKSWNTAPDKVKQGWP
B6: GlyPro-mTGase_Y62H_Y75N from S. ladakanum (protein)
chain: GPDSDERVTPPAEPLDRMPDPYRPSYGRAETIVNNYIRKWQQVYSHRDGRKQQMTEEQREWLSHGCVGVTWVNSGQNPTNRLAFAFFDEDKYKNELKNGRPRSGETRAEFEGRVAKDSFDEAKGFQRARDVASVMNKALENAHDEGAYLDNLKKELANGNDALRNEDARSPFYSALRNTPSFKDRNGGNHDPSKMKAVIYSKHFWSGQDRSGSSDKRKYGDPEAFRPDRGTGLVDMSRDRNIPRSPTSPGESFVNFDYGWFGAQTEADADKTVWTHGNHYHAPNGSLGAMHVYESKFRNWSDGYSDFDRGAYVVTFVPKSWNTAPDKVKQGWP
B7: GlyPro-mTGase_Y75N from S. ladakanum (protein)
chain: GPDSDERVTPPAEPLDRMPDPYRPSYGRAETIVNNYIRKWQQVYSHRDGRKQQMTEEQREWLSYGCVGVTWVNSGQNPTNRLAFAFFDEDKYKNELKNGRPRSGETRAEFEGRVAKDSFDEAKGFQRARDVASVMNKALENAHDEGAYLDNLKKELANGNDALRNEDARSPFYSALRNTPSFKDRNGGNHDPSKMKAVIYSKHFWSGQDRSGSSDKRKYGDPEAFRPDRGTGLVDMSRDRNIPRSPTSPGESFVNFDYGWFGAQTEADADKTVWTHGNHYHAPNGSLGAMHVYESKFRNWSDGYSDFDRGAYVVTFVPKSWNTAPDKVKQGWP
B8: GlyPro-mTGase_Y62H_Y75F from S. ladakanum (protein)
chain: GPDSDERVTPPAEPLDRMPDPYRPSYGRAETIVNNYIRKWQQVYSHRDGRKQQMTEEQREWLSHGCVGVTWVNSGQFPTNRLAFAFFDEDKYKNELKNGRPRSGETRAEFEGRVAKDSFDEAKGFQRARDVASVMNKALENAHDEGAYLDNLKKELANGNDALRNEDARSPFYSALRNTPSFKDRNGGNHDPSKMKAVIYSKHFWSGQDRSGSSDKRKYGDPEAFRPDRGTGLVDMSRDRNIPRSPTSPGESFVNFDYGWFGAQTEADADKTVWTHGNHYHAPNGSLGAMHVYESKFRNWSDGYSDFDRGAYVVTFVPKSWNTAPDKVTQGWP
B9: GlyPro-mTGase from S. ladakanum (protein)
chain: GPDSDERVTPPAEPLDRMPDPYRPSYGRAETIVNNYIRKWQQVYSHRDGRKQQMTEEQREWLSYGCVGVTWVNSGQYPTNRLAFAFFDEDKYKNELKNGRPRSGETRAEFEGRVAKDSFDEAKGFQRARDVASVMNKALENAHDEGAYLDNLKKELANGNDALRNEDARSPFYSALRNTPSFKDRNGGNHDPSKMKAVIYSKHFWSGQDRSGSSDKRKYGDPEAFRPDRGTGLVDMSRDRNIPRSPTSPGESFVNFDYGWFGAQTEADADKTVWTHGNHYHAPNGSLGAMHVYESKFRNWSDGYSDFDRGAYVVTFVPKSWNTAPDKVKQGWP
B10: GlyPro-mTGase_Y75F from S. ladakanum (protein)
chain: GPDSDERVTPPAEPLDRMPDPYRPSYGRAETIVNNYIRKWQQVYSHRDGRKQQMTEEQREWLSYGCVGVTWVNSGQFPTNRLAFAFFDEDKYKNELKNGRPRSGETRAEFEGRVAKDSFDEAKGFQRARDVASVMNKALENAHDEGAYLDNLKKELANGNDALRNEDARSPFYSALRNTPSFKDRNGGNHDPSKMKAVIYSKHFWSGQDRSGSSDKRKYGDPEAFRPDRGTGLVDMSRDRNIPRSPTSPGESFVNFDYGWFGAQTEADADKTVWTHGNHYHAPNGSLGAMHVYESKFRNWSDGYSDFDRGAYVVTFVPKSWNTAPDKVKQGWP
B11: AlaPro-mTGase from S. mobaraensis (protein)
chain: APDSDDRVTPPAEPLDRMPDPYRPSYGRAETVVNNYIRKWQQVYSHRDGRKQQMTEEQREWLSYGCVGVTWVNSGQYPTNRLAFASFDEDRFKNELKNGRPRSGETRAEFEGRVAKESFDEEKGFQRAREVASVMNRALENAHDESAYLDNLKKELANGNDALRNEDARSPFYSALRNTPSFKERNGGNHDPSRMKAVIYSKHFWSGQDRSSSADKRKYGDPDAFRPAPGTGLVDMSRDRNIPRSPTSPGEGFVNFDYGWFGAQTEADADKTVWTHGNHYHAPNGSLGAMHVYESKFRNWSEGYSDFDRGAYVITFIPKSWNTAPDKVKQGWP
B12: GlyPro-mTGase from S. mobaraensis (protein)
chain: GPDSDDRVTPPAEPLDRMPDPYRPSYGRAETVVNNYIRKWQQVYSHRDGRKQQMTEEQREWLSYGCVGVTWVNSGQYPTNRLAFASFDEDRFKNELKNGRPRSGETRAEFEGRVAKESFDEEKGFQRAREVASVMNRALENAHDESAYLDNLKKELANGNDALRNEDARSPFYSALRNTPSFKERNGGNHDPSRMKAVIYSKHFWSGQDRSSSADKRKYGDPDAFRPAPGTGLVDMSRDRNIPRSPTSPGEGFVNFDYGWFGAQTEADADKTVWTHGNHYHAPNGSLGAMHVYESKFRNWSEGYSDFDRGAYVITFIPKSWNTAPDKVKQGWP

Key:
[1] = target: wild type human growth hormone, P01241
Chain of wild type human growth hormone, P01241 (P01241 27-217): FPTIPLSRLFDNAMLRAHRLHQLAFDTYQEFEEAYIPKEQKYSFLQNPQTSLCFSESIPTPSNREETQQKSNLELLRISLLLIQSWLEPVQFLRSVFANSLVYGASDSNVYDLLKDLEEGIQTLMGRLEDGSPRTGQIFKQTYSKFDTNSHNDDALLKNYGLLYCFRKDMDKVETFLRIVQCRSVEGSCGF

Chain of hGHQ141N, P01241 (P01241 27-217 Q167N): as the sequence (P01241 27-217) above, with Q141N counted along it
Chain of hGHQ40N, P01241 (P01241 27-217 Q66N): as the sequence (P01241 27-217) above, with Q40N counted along it

| Protein | Activity towards hGHQ40N (RFU/sec/µg) (hGHQ40N, P01241) | Activity towards hGHQ141N (RFU/sec/µg) (hGHQ141N, P01241) | hGH conv. rate (%) [1] | other results |
| --- | --- | --- | --- | --- |
| B1 | 5.44 RFU/sec/µg | 1.24 RFU/sec/µg |  |  |
| B2 | 3.55 RFU/sec/µg | 0.63 RFU/sec/µg |  | HPLC peak area of product-Q141 (hGHQ40N, P01241): area 1238; Q40N (remaining substrate, normalized to 100) (normalized to 100) (hGHQ40N, P01241): 23; product-Q141 (normalized to 100) (normalized to 100) (hGHQ40N, P01241): 77; HPLC peak area of product-Q40 (hGHQ141N, P01241): area 127; Q141N (remaining substrate, normalized to 100) (normalized to 100) (hGHQ141N, P01241): 90; product-Q40 (normalized to 100) (normalized to 100) (hGHQ141N, P01241): 10 |
| B3 | 4.74 RFU/sec/µg | 0.8 RFU/sec/µg |  |  |
| B4 | 3.35 RFU/sec/µg | 0.98 RFU/sec/µg |  | HPLC peak area of product-Q141 (hGHQ40N, P01241): area 1283; Q40N (remaining substrate, normalized to 100) (normalized to 100) (hGHQ40N, P01241): 29; product-Q141 (normalized to 100) (normalized to 100) (hGHQ40N, P01241): 71; HPLC peak area of product-Q40 (hGHQ141N, P01241): area 296; Q141N (remaining substrate, normalized to 100) (normalized to 100) (hGHQ141N, P01241): 81; product-Q40 (normalized to 100) (normalized to 100) (hGHQ141N, P01241): 19 |
| B5 | 6.91 RFU/sec/µg | 1.02 RFU/sec/µg |  |  |
| B6 |  |  | 38% |  |
| B7 |  |  | 44% | hGH conversion rate, CE, reaction time 90 m [1]: hGH conversion rate=50% |
| B8 |  |  | 49.4% | RS (relative selectivity), separate experiment [1]: 7.6; Selectivity (Q141/Q40), CE, separate experiment [1]: 76.5; hGH conv. rate (%), separate experiment [1]: 38.1% |
| B9 | 4.25 RFU/sec/µg | 0.48 RFU/sec/µg | 55% |  |
| B10 |  |  | 41% | hGH conversion rate, CE, reaction time 75 m [1]: hGH conversion rate=33% |
| B11 | 5.05 RFU/sec/µg | 1.56 RFU/sec/µg | 33% | conversion rate, CE, reaction time 30 minutes [1]: conversion rate=32%; hGH conv. rate (%), reference of the separate experiment [1]: 39% |
| B12 | 4.28 RFU/sec/µg | 1.13 RFU/sec/µg |  |  |
